# B1: Endoribonuclease ZC3H12A (Homo sapiens), Q5D1E8 (parent)
# chain: MSGPCGEKPVLEASPTMSLWEFEDSHSRQGTPRPGQELAAEEASALELQMKVDFFRKLGYSSTEIHSVLQKLGVQADTNTVLGELVKHGTATERERQTSPDPCPQLPLVPRGGGTPKAPNLEPPLPEEEKEGSDLRPVVIDGSNVAMSHGNKEVFSCRGILLAVNWFLERGHTDITVFVPSWRKEQPRPDVPITDQHILRELEKKKILVFTPSRRVGGKRVVCYDDRFIVKLAYESDGIVVSNDTYRDLQGERQEWKRFIEERLLMYSFVNDKFMPPDDPLGRHGPSLDNFLRKKPLTLEHRKQPCPYGRKCTYGIKCRFFHPERPSCPQRSVADELRANALLSPPRAPSKDKNGRRPSPSSQSSSLLTESEQCSLDGKKLGAQASPGSRQEGLTQTYAPSGRSLAPSGGSGSSFGPTDWLPQTLDSLPYVSQDCLDSGIGSLESQMSELWGVRGGGPGEPGPPRAPYTGYSPYGSELPATAAFSAFGRAMGAGHFSVPADYPPAPPAFPPREYWSEPYPLPPPTSVLQEPPVQSPGAGRSPWGRAGSLAKEQASVYTKLCGVFPPHLVEAVMGRFPQLLDPQQLAAEILSYKSQHPSE
# Variants of: B1
# Details: with ubp10_human USP10, Q14694
# ubp10_human USP10, Q14694, sequence (Q14694 whole entry): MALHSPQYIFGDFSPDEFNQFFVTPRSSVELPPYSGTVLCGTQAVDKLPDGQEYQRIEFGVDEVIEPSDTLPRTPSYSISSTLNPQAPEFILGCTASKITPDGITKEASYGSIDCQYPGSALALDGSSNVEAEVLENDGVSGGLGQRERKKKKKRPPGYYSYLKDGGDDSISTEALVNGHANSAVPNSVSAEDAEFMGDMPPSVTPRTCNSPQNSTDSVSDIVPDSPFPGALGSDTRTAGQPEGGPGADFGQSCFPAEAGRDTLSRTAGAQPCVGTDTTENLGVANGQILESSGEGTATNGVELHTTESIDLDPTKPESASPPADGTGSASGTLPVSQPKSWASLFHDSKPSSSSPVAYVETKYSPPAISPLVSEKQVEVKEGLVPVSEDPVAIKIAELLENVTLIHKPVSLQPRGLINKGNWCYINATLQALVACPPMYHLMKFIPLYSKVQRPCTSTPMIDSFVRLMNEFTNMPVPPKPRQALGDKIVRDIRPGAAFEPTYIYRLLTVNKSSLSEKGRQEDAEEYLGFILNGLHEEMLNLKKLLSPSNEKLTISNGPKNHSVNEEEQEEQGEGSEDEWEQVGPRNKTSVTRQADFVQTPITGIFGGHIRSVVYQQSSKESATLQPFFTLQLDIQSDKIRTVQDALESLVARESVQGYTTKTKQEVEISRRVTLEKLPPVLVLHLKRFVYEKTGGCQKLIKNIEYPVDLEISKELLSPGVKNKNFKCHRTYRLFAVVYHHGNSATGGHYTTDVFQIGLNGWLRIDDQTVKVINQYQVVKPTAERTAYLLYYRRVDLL
row,effect of a mutation on the interaction,Variant
1,disrupting interaction,C306R

# Variants of: B1
# Details: with ubp10_human USP10, Q14694
# Remark: another data set of the same source
row,effect of a mutation on the interaction,Variant
1,disrupting interaction,D141N

# From IntAct's records for PubMed 24270572
